Data reported in a protein production outcome set (Wang et al. 2014).

experiment: label from the status in PepcDB records
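Note: failed if final PepcDB status was selected cloned or expressed and not failed if soluble or beyond.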

| Sequence | protein production |
| --- | --- |
| MVMAPLPPVESLSLRQAIAQMIVVRGAGYLFDYERPYPQWEADQTTLQRWIEAGIGGVILLGGSAAEVAQKTKQLQSWAEIPLLIAADIEEGVGQRFRGATEFPPPMAFGEIWRTDPHQAIALAETMGATTAQEALSLGINWVLAPVLDVNNNPHNPVINIRAFGETPDQVSALGTAFIRGAQQYAVLTTAKHFPGHGDTATDSHLALPTISHDDTRLNTVELPPFKAAIQGGVDAVMNAHLMIPAWDQQYPATLSPAILTGQLRHKLGFKGLIVTDALVMGGITQFAAPDTVVVQAIAAGADILLMPPDVDGAIIAIETAIKTGQLSESRIYESVERIWQAKQKILTATPSTFPQGISGDRPETRKTVAMVLERATKHQKSLVKISSFPDNFARNLIVVDSVLKSPFLRPNCPAIAIPQRHGYAAEIVELKTLPRLQLEAIPTLIQCFLRGNPFTEKLADPIDVLQKIAAQIPLQGVIFYGSPYFLEALQTTLPEIPWWFSYGQMAIAQAEICTSLWEEAPQAAPSAAEFI | not failed |
| MVMEKALTLQQMPDFIVSTIPKGQASYLVFGERSIGKKDVIDIVIKQLEKIGFRTGVEQVPSVGETYKNQTLNSIMDKITGKTEVRDKNTIIKEYDEFTRNNKEKIVIAVYGVEKLSMESKNLFLYMCRISRNRNVTLIGTYNADSTDEYDRFINLIASEDYINIIKIEKPTIEDIAFLVKKMGYKLPDDFVKEIARLTNYNIDSMKYALRYYQDLGVINDRKEINTVSFRYIPVPPTTELYYEKMINSLTDLEKNVAYLMVMLSNDIDVDSAAIILNRKRTEVLNIIRKLEDKGLVKFNGQVVGFYSDKIRRSVEKSMKTSDIAYMTSLIESSQLFMRMPPAQRMHILMKANKLDEIRDIIKEKGQSLVDGYNSVDEVIEDLEQLGNVFSEDSDVKKVLCHAYYLKGRFDKAISCYMDIKPDHDLDSMIDLSSIYSNMGKFEEAEKILEDAKNNFTDDYPQTIISYRIAALYYRMGRYKDTIDMLTPLLGKIDAENMSGVKAGILNILGNIDMTSYRYGDALKKYNEALEINRKLSNYAEISRNLNNIALIDVYTGKYDLAISILKELIETTYSTGDLVSRIYAIYNLSEIYYVIGKQEYAEGYIPLMMRILDVVSEKRVSFHIYRFLTMYYVGLLDFKMAKKYAELAIENAIMEDQKIMAIIFHKIINYVLTGEDPNIDTQEIDSTNFTDDYTSTFLIALAYYYRIIENQEMAKHYVDMAEEAAYKMKIPYVIVNASFHKAVILLSIGDLDGFRRHFERMQKPPTTIQFYDDSFEIFRSIYDGNFDAIKSSKYRIIEEDHVNGTLKGLMPVILNAFALYKFSGIPDDLHHLINVTPEPYSRLLALITNYH | failed |
| MVMPESHIHNIPMEQCVLVALMTFALSYELIAQDLDEGCFYPERHKQIYNAIVELANENQPYDVVMVEQRLKSKNLLHVLGGEQYLKIMLAEAPSSFHSMEPYITQLKKLKAHRQVEWLGQRISSMAQDTTQPDVFAEAENILGQVDNQEQSDQGMSFEAALDMALTEMIEKAEAKDKQQFTGVKFNLKHLDELLGTVQKGHFCVVGGRPGSGKSTLAQMLALDTASSFGKGVLFISAEMDQSTLANRMISALGLIPYHNIHNAELYNGLMKDYADAKAAYQRLPIWIQPKQKPSLSEVRSYARRAKRRYKELGCIIVDYLQLLRDPSKKDRFQEVSSISRELKSMAKEFECPVIALVQLNREAEKGKRPKASDIKESGQIEQDADQIILVNPLTDPEDSTKPMGITELIVVKNRHGKRGAVRVLDYLETCRFRSVEEQAEP | failed |
| MVMSIEASCHCGETVFEVTEAPSSVTRCTCSLCAKRGSLWAYYKPAQFRLLSPPENVTTYLWGSRTVKHHFCASCGCGTYSESPDWSTGKPDFDNPKVAVNARLFDDFDLDAVPVNMIDGKNLWLEHHHHHH | not failed |
| MVNEGLIPSLEDEVKRRGVINQLRKIVVRWVKNVAWQHRLPQNQIDATNATILPYGSYGLGVYGSESDIDALCIGPFFASIADFFISLRDMLKSRREVSELHCVKDAKVPLIRFKFDGILVDLPYAQLRVLSIPNNVDVLNPFFLRDIDETSWKILSGVRANKCILQLVPSLELFQSLLRCVKLWAKRRGVYGNLNGFLGGVHMAILAAFVCGYQPNATLSSLLANFFYTFAHWQWPTPVVLLEDTYPSTGAPPGLMPIQLPCGSHQYCNSTITRSTFYKIVAEFLLGHNLTKDYLKLNFSWKDLFELYPYANTYTWFTKIHLSAANQEDLSDWVGWVKSRFRCLLIKIEEVYGICDPNPTEYVETYTKQPNIVFYWGLQLRTINVSDIESVKIDFLKNVNSGSFRGTVGRIQLTLVKASQLPKNGECGSNNRSKKVTKTCWRIREDKQCNNVPVYSKHLPGYVVGYQKMVNREADGMEVKC | failed |
| MVNQQEEINLSVALVTRNRPDSLERCLKSLRDQKVQPFEVVVSDDSDDLYKSSTKEIAQKWGCRYIDGPKRGLYANRNYVALACYGTHIRTMDDDHEFPEQHIEVCLNAIQSDPSSIWIIGEYSPTSSIENAPHPCPGQLHPRGFSFYPKDTQNCWAIADGASIYPKKIFASGLRFVEYYKFGASYLEWGSRLYYLSYRIRHLDSTYIIHHFNPKARSFSDQEMDQSSRFFAMLCHSFLYQSTFKNKCLFSYEILKQFILDPKLTIKCIINSWSNFELFSRSFCALEHHHHHH | failed |
| MVNRCFFFNRRICFMELFLLRHGKPDIRRSMAIRSVDMYSWIGEYDAAGILDSPDASTVAASEGKFIVSSPMPRALESVAALGLEPDIIIDELHEAPLPVFNIPLLKLTPLVWAALFRIFWMAGGSGGVETFSSVKIRAKLVSCELDKMAETHGSVLSVGHGFMNALVARELQKAGWKRQKVGPSGYWSGIKLVR | failed |
| MVPALALGLVIGVLLVVIGVSFAAMIFSGPLAPLATRGAGLTLFGAASLCGFLAVSSSFRSAISTPQDAPVAVLATMGVPVVAAMGMSDPNATFATMLAAMSIATLATGIALMAIGHFRLTRFFRFMPYPVVGGFLAGGGWMLVKGGISVMSSLSLNVESLPMLFESVHIWKWSPGVLYAISLWLVLKRWSHFLILPCSIVMVTAAYYVAFHILAISLADARAAGILLSGVPSSGLWPAFSISDLQTVRWDIVFDQTPIMFTVVLVTMMGLLLNISGLELGSGTDIDFDREFRNAGLANTLGGLGGSAPGSHTLSLSLLCSSSGAYTRLAGIITASVIAAVLFMGGSVLEYFPLPVLGGLLVFLGIDIMDSWLRATRRRLPLSDYLVLCVIFLVICFSGFLEGVAVGLVITVVLFIIRLSKVDIIHDSFTGLTLHSRVNRSIPQRTILQQHGERIRGYRLSGYLFFGSASLLVETLKQELRKTPQPWCILLDFKNVSGFDISAANAFQRFISSAHAEHVRIVLTETSPRFISMLQRILPIESIDNLVTAQDIDRGLEACEEAILTEYTERTAQQANAADMLFEQSVDDMMAHLDRQILFEALVEELRPWVQECHYEGETLLVEKGKTQQGLQMLVWGSATATDGDGGTRLAHLRAGDVLVPQAAFAPFVAREHIMADSPCRTVLLTAQARLLMEQENPDLALRLDRYVISSWKA | failed |
| MVQIIFDSKTGNVQRFVNKTGFQQIRKVDEMDHVDTPFVLVTYTTNFGQVPASTQSFLEKYAHLLLGVAASGNKVWGDNFAKSADTISRQYQVPILHKFELSGTSKDVELFTQEVERVVTKSSAKMDPVK | not failed |
| MVQTPSKPITLDEFLKLPETEPASEYIEGKIIQKPMPQGKHSAIQSECVSVINSVVKPQRIARAFLELRCTFGDHSTVPDISVFIWSRIPREENGEIANIFLIAPDWTIEILSPDQSQTKVTKNILHCLKHGTQMGWLIDPDEQTVFVYRPQQETEVFDEPDALVPVPSFASELHLSIKDLFSWLL | not failed |
| MVQVEKGHVAVVFLNDPERRNPLSPEMALSLLQALDDLEADPGVRAVVLTGRGKAFSAGADLAFLERVTELGAEENYRHSLSLMRLFHRVYTYPKPTVAAVNGPAVAGGAGLALACDLVVMDEEARLGYTEVKIGFVAALVSVILVRAVGEKAAKDLLLTGRLVEAREAKALGLVNRIAPPGKALEEAKALAEEVAKNAPTSLRLTKELLLALPGMGLEDGFRLAALANAWVRETGDLKEGIRAFFEKRPPRF | not failed |
| MVRISNMQFEVIENVKDGWNEEAFVERYSDVLNKYDYIVGDWGYNQLRLRGFFDDQNKKSTYDKKISTLQDYLYEYCNFGCAYFVVKRVKTESLEHHHHHH | failed |
| MVRKSIDRSTAAEITRGIGNVFADLGMPDAEERQTKLRLAYALNAVIDRARLSQAAAAARLGINQPKVSALRNYKLEGFSVERLMTLLNALDQDVEIVIRKKPRSRAAARISVVAA | not failed |
| MVRLIKTETVISVLMGHFIKKLLFILLFVGVLIAPANAQNEKNMYSYKKIGNKYIVSINNHTEIVKALNAFCKEKGILSGSINGIGAIGELTLRFFNPKTKAYDDKTFREQMEISNLTGNISSMNEQVYLHLHITVGRSDYSALAGHLLSAIQNGAGEFVVEDYSERISRTYNPDLGLNIYDFERLEHHHHHH | failed |
| MVRVDQNLFNEVMYLLDELSQDITVPKNVRKVAQDSKAKLSQENESLDLRCATVLSMLDEMANDPNVPAHGRTDLYTIISKLEALSKS | not failed |
| MVRYPLEPVLSIKKDRVDRAEKVVKEKRRLLELEQEKLRERESERDKVKNHYMQKIRQLREQLDDGTTSDAILKMKAYIKVVAIQLSEEEEKVNKQKENVLAASKELERAEVELTKRRKEEEKTRLHKEEWMKEALKEEARQEEKEQDEMGQLLHQLHKQKQRESGEN | failed |
| MVSANTKPLSEFKTGEFVQIEKIQLEGTMKRRLLDLGFIPGATIKVLQRSPLGDPVAYQVSNTTIALRKEESSLIFGVLIGDDFRLEHHHHHH | not failed |
| MVSAPASASSSPASSSFQSFFWQAAARPRAEPKRQALKRITLMTTDKTSPYEIHDDRFRHLIVGNAELEELYSGCRWAEGPVWFADLNCLLFSDIPNERMLRWVPDGGISVFRQPSNFTNGNTRDRQGRLVSCEHGGRRVTRTEVDGSITVLADSYGGKRLNSPNDVVVKSDGSVWFTDPTYGILSDYEGYKAEPEQKTRNVYRLDPATGKIDIAIDDFVQPNGLAFSPDETKLYVADSSYSHDISRPRHIRVFDVVDGVRLANGREFCNLDNGLPDGFRLDTAGNLWTSAGDGVHCFAPDGRLIGKIKVPQTVANLTFGGPKKNRLFITATKSLYSVYVAATGAQTPLEHHHHHH | not failed |
